Measurements: patent US20250288697A1
Where two headings read alike, the source gives them in different places.

How the values were obtained:
[1] = molecular target: recombinant mouse TNFα (mouse) (UniProt P06804)
[2] = molecular target: recombinant mouse TNFα (mouse) (UniProt P06804); remark: listed apart in the source

Chain of UniProt P06804 (P06804 80-235 limits assumed): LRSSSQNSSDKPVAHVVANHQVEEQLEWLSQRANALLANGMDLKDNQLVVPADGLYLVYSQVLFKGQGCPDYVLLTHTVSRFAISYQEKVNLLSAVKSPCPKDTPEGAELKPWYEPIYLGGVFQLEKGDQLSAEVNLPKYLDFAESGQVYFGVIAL

IC50 (read off the curve); HEK-Blue TNFα reporter (SEAP), % TNFα activity [1]: 0.9 µg/mL
IC50 (read off the curve); HEK-Blue TNFα reporter (SEAP), % TNFα activity [2]: 0.5 µg/mL
Substance: TNFR2-Fc (etanercept), vectorized (Fc fusion)
